How the values were obtained:
MS2 coat protein [1] = experiment: apparent KD of MS2 coat protein, switch ON state; designed switch direction (-1 OFF switch, 1 ON switch): -1; higher = weaker reporter binding; details: FMN input: 0 or 200 uM; Eterna round: R93 (includes R88 designs)
Outline: (§1)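 Apparent KD per design is the median of normalised cluster binding-curve fits. Designed RNA switches transcribed on-chip from Illumina sequencing clusters were titrated with SNAP-549-labelled MS2 coat protein in twofold steps from 0.7 or 1.5 nM to 3 µM, with 0.8–1.5 h down to 10–20 min per step. Buffer: 100 mM Tris-HCl pH 7.5, 80 mM KCl, 4 mM MgCl2, without or with constant ligand.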

MS2 coat protein [2] = experiment: apparent KD of MS2 coat protein, switch OFF state (with FMN for OFF switches, without FMN for ON switches); designed switch direction (-1 OFF switch, 1 ON switch): -1; higher = weaker reporter binding; details: FMN input: 0 or 200 uM; Eterna round: R93 (includes R88 designs)
Outline: as §1

Row | Sequence | apparent KD of MS2 coat protein (MS2 coat protein [1]) [nM] | apparent KD of MS2 coat protein (MS2 coat protein [2]) [nM]
1 | AGGAAACAUGAGGAUCACCCAUGUAAGGAUAUGAACGAAAAUAAAUAAAAAUAAAAGUUCAGAAGGUACGAAAA [66%, Wbt, 7] | 30.7 | 55.1
2 | AAGAACCGAGGAUAUACAUGAGGAUCACCCAUGUAAAAGAAAGAGGGAAAAGAGAAAAGUAGAAGGCGGAAGAA [Berenice I] | 26.2 | 57.4
3 | AAAAAACAUGAGGAUCACCCAUGUGAGGAUAUGCAAAAGAAAAGAAAAGAAAGAAGAAGCAGAAGGUACAAGAA [Shepseskare Isi] | 22.6 | 27.7
4 | AAAAAGUGAGGAUAUGCAGUGGCCUGUAGACGCGAGCACUUGUAGAAGGCACAUGAGGAUCACCCAUGUUUAAA [EX4 Malc#29] | 21.3 | 20.5
5 | AAGAAGUAAGGAUAUCGUGCUCGUCACAAAAGUGAUGAGUACGAGAAGGUACAUGAGGAUCACCCAUGUAAAGA [Opal 35] | 24.6 | 21.9
6 | GAAAAGUCAGGAUAUACAGAAAAAAAAACGAAAAAAAAUCUGUAGAAGGGACAUGAGGAUCACCCAUGUUAAAG [Mat - Exclusion 4 - Mayanna - D126] | 38 | 23.6
7 | AAGAAGUGAGGAUAUGUCUGUGCGAAAAAAAAAAAGUGCAGACAGAAGGCACAUGAGGAUCACCCAUGUAAAAA [Florian 65% 2] | 37.5 | 48.1
8 | AAGGUAGGAGGAUAUACAUAGAUACAGAUACAUGUAGACGUACAUGAGGAUCACCCAUGUAGAAGGCCUAUAUA [Mat - Same state - Mayanna Mod - D147] | 97.3 | 107
9 | AACAGUACAGGAUAUACAUGAGGAUCACCCAUGUAAAAUAAAUAAAAAUAAAAGGGAAGUAGAAGGGUACUGGA [Moding Maslow revisited (73) 17] | 31.6 | 46.5
10 | AAGGGACAUGAGGAUCACCCAUGUAAGGAUAUCGGAAAAGGAAAAAAAAAAAAGAAGACGAGAAGGUACAAAAA | 122 | 71.6
11 | ACUUGACAUGAGGAUCACCCAUGUCAGGAUAUAGUACGACAAAUAAAUAAAAGUUCUACUAGAAGGGAUAUGGA [Amethyst 53] | 17 | 15.5
12 | AGGAAACAUGAGGAUCACCCAUGUCAGGAUAUUUGAAAGAAAAGAAAAGAAAGAAGAAGAAGAAGGGACAAGAA [Narmer] | 27.6 | 31.1
13 | AAAAAACAUGAGGAUCACCCAUGUGAGGAUAUCUGUAUCCAAAAGGAAGUGUAGGAUCGGAGAAGGCACUAGGA [Banishment 1 - Jieux - Exclusion 1] | 36.5 | 52.3
14 | CUCAAGUUAGGAUAUACAAGAAAAGAAGAGAAAGAAAAGAAGUAGAAGGAACAUGAGGAUCACCCAUGUAAGAA [EteRNA is fun!] | 33.2 | 25.7
15 | AAAAAAAAAGGAUAUAAAAAAAAAAGUCAGGAUAUAGGAAACUAGAAGGGACAUGAGGAUCACCCAUGUAAAAA [Meechl Ex4 R2 m0] | 63.5 | 40.8
16 | GGUUGGCGAGGAUAUACAUGAGGAUCACCCAUGUGAGAGAAAAAAGUGAGAAAGAACAGUAGAAGGCGCUGACG [salish99-ex3-29] | 23.4 | 72.8
17 | AGAACGUCAGGAUAUGCAACAACAAGUAAAUAGAGAAGAAGGCAGAAGGGACAUGAGGAUCACCCAUGUAAGAA [e4] | 44.1 | 29.9
18 | AAGAAGUGAGGAUAUCGAAGACUGUCGAAAAGACAGUCGAACGAGAAGGCACAUGAGGAUCACCCAUGUGAGGG [Marsurpial 65% 3] | 130 | 69.9
19 | AGAAAGCGAGGAUAUGCUCGGGUUGAAUGACGAGAGAAUACACAUGAGGAUCACCCAUGUAGAAGGUGUAUAAA [JR_Exc002_Sub1712] | 54 | 35.1
20 | AAAAAGGUAGGAUAUACGAAAAAAAAGGGUAGAAAAAUAAAACAUGAGGAUCACCCAUGUAGAAGGACCAAAAA [Ex 2 sub 1 70% 1] | 25.8 | 86.5

Row | Sequence | apparent KD of MS2 coat protein (MS2 coat protein [1]) [nM] | apparent KD of MS2 coat protein (MS2 coat protein [2]) [nM]
21 | AAACCACAUGAGGAUCACCCAUGUCAGGAUAUGCAAACAACAAACAACAAACAACAAAGCAGAAGGGACAACAA [63%, Olong, 2] | 13.8 | 18
22 | AAAUGCUGAGGAUAUACAUGAGGAUCACCCAUGUAAAAUAAAUAAAGGGUGUAAACGUGUAGAAGGCAGCAUAA [Exclusion 3.14e (FMN+ favored )] | 39.4 | 32.6
23 | AGUGAGUGAGGAUAUUACUGAAGAAUAAAAGAAAUAACAAGUAAGAAGGCACAUGAGGAUCACCCAUGUACACA [May 61] | 22.4 | 22
24 | CAAAAGGAAGGAUAUACAUAAUAAAACGGGCGGGCACCUUAACAUGAGGAUCACCCAUGUAGAAGGUCCAAUAC [Onesmabe] | 15.7 | 18.6
25 | AGGGAGUGAGGAUAUGCGAAAGAAAAAGAAGGAAAAAAAAAGCAGAAGGUACAUGAGGAUCACCCAUGUAAAAA [milkweed 7] | 26.5 | 16.9
26 | UAUAACCAAGGAUAUACUAACGAAACUAAUGCAUAUAUAUAACAUGAGGAUCACCCAUGUAGAAGGUGGAGAAU [JR_Exc002_Sub012] | 60.5 | 50.2
27 | AAAAACCGAGGAUAUACAUGAGGAUCACCCAUGUGAAAAAAAAAAAAGAGGAAAAGAUGUAGAAGGCGGAAAAA [65%, Moding Exclusion3-cac2, 17] | 33.9 | 44.1
28 | AGGAUGUCAGGAUAUGUGUAAAGAAUAAAAGAAAUAACAACACAGAAGGGACAUGAGGAUCACCCAUGUUAAAA [May 35] | 48.8 | 44.3
29 | CAGAGACAUGAGGAUCACCCAUGUUAGGAUAUGCGUGUAUGCUAAAAAAAGUUAACAAGCAGAAGGAACAGAGG [JR_Exc001_Sub309] | 24.3 | 64.2
30 | AGAAAGGCAGGAUAUACAUGAGGAUCACCCAUGUUAAGAAAGUGCGAAAGCACAAGAAGUAGAAGGGCCAAGAA [Rupert goes to college] | 23.2 | 19.2
31 | GAAAAGUCAGGAUAUAUAGGAAAAAUAAAAAAAAUAAAACUAUAGAAGGGACAUGAGGAUCACCCAUGUUAAAA [Mat - Exclusion 4 - Mayanna - D131] | 43.9 | 24.7
32 | AAGAAACGAGGAUAUACAUGAGGAUCACCCAUGUAAAAGAAAGAAAAGGGAAAGAAAAGUAGAAGGCGUAAGAA [Usermaatre-sekheperenre Ramesses V] | 30.4 | 37
33 | GAAAAGUGAGGAUAUACAUGAGGAUCACCCAUGUGUAUAAAAAAUUACACAAAAGAAAGUAGAAGGCACUAAAA [Mat - Exclusion 3 - Mayanna mod - D114] | 17.8 | 28.1
34 | AUAAAGUGAGGAUAUGCUAAGAAGUAAAUAGACAAAUAAAUGCAGAAGGCACAUGAGGAUCACCCAUGUAAGAA [Ex 4 Tesla 4] | 35.9 | 26.2
35 | GACGAGUGAGGAUAUGUAAAAAAAAGAGAAGAGAAGAGAGAACAGAAGGCACAUGAGGAUCACCCAUGUAGGGA [Default title] | 114 | 71
36 | AAGGGACAUGAGGAUCACCCAUGUUAGGAUAUGCUAUGGAAAAUAAAAUAAAAACAUAGCAGAAGGAACAAAAA [Mat - Exclusion 1 - Eli mod - D36] | 43.2 | 60.5
37 | AAGAAGUGAGGAUAUCGUUGUCGUCACAAAAGUGAUGACGACGAGAAGGCACAUGAGGAUCACCCAUGUAAAGA [Opal 28] | 37.8 | 43
38 | UAUAGACAUGAGGAUCACCCAUGUGAGGAUAUCGGUAACUACAAAACAUCACAUACAACGAGAAGGCACAGAAA [JR_Exc001_Sub013] | 41.5 | 35.1
39 | AAAAAACAUGAGGAUCACCCAUGUGAGGAUAUGUAUAUCCCUAAAAAAGUGUGGGACUACAGAAGGCACUUGGA [Atanri] | 43.3 | 122
40 | AAAAGACAUGAGGAUCACCCAUGUAAGGAUAUGCAGAGAGCAAAACAAAAAAAAAAAAGCAGAAGGUACAUAAA [Design2] | 55.4 | 65.1

— the supplement of paper PMC9170038
